Source: publication PMC11526878

Target: ryanodine receptor 1 (RyR1) purified from rabbit skeletal muscle (rabbit) (UniProt P11716)
Assay: cryo-EM structure

Chain of ryanodine receptor 1 (RyR1) purified from rabbit skeletal muscle, P11716 1-5037 (P11716 whole entry): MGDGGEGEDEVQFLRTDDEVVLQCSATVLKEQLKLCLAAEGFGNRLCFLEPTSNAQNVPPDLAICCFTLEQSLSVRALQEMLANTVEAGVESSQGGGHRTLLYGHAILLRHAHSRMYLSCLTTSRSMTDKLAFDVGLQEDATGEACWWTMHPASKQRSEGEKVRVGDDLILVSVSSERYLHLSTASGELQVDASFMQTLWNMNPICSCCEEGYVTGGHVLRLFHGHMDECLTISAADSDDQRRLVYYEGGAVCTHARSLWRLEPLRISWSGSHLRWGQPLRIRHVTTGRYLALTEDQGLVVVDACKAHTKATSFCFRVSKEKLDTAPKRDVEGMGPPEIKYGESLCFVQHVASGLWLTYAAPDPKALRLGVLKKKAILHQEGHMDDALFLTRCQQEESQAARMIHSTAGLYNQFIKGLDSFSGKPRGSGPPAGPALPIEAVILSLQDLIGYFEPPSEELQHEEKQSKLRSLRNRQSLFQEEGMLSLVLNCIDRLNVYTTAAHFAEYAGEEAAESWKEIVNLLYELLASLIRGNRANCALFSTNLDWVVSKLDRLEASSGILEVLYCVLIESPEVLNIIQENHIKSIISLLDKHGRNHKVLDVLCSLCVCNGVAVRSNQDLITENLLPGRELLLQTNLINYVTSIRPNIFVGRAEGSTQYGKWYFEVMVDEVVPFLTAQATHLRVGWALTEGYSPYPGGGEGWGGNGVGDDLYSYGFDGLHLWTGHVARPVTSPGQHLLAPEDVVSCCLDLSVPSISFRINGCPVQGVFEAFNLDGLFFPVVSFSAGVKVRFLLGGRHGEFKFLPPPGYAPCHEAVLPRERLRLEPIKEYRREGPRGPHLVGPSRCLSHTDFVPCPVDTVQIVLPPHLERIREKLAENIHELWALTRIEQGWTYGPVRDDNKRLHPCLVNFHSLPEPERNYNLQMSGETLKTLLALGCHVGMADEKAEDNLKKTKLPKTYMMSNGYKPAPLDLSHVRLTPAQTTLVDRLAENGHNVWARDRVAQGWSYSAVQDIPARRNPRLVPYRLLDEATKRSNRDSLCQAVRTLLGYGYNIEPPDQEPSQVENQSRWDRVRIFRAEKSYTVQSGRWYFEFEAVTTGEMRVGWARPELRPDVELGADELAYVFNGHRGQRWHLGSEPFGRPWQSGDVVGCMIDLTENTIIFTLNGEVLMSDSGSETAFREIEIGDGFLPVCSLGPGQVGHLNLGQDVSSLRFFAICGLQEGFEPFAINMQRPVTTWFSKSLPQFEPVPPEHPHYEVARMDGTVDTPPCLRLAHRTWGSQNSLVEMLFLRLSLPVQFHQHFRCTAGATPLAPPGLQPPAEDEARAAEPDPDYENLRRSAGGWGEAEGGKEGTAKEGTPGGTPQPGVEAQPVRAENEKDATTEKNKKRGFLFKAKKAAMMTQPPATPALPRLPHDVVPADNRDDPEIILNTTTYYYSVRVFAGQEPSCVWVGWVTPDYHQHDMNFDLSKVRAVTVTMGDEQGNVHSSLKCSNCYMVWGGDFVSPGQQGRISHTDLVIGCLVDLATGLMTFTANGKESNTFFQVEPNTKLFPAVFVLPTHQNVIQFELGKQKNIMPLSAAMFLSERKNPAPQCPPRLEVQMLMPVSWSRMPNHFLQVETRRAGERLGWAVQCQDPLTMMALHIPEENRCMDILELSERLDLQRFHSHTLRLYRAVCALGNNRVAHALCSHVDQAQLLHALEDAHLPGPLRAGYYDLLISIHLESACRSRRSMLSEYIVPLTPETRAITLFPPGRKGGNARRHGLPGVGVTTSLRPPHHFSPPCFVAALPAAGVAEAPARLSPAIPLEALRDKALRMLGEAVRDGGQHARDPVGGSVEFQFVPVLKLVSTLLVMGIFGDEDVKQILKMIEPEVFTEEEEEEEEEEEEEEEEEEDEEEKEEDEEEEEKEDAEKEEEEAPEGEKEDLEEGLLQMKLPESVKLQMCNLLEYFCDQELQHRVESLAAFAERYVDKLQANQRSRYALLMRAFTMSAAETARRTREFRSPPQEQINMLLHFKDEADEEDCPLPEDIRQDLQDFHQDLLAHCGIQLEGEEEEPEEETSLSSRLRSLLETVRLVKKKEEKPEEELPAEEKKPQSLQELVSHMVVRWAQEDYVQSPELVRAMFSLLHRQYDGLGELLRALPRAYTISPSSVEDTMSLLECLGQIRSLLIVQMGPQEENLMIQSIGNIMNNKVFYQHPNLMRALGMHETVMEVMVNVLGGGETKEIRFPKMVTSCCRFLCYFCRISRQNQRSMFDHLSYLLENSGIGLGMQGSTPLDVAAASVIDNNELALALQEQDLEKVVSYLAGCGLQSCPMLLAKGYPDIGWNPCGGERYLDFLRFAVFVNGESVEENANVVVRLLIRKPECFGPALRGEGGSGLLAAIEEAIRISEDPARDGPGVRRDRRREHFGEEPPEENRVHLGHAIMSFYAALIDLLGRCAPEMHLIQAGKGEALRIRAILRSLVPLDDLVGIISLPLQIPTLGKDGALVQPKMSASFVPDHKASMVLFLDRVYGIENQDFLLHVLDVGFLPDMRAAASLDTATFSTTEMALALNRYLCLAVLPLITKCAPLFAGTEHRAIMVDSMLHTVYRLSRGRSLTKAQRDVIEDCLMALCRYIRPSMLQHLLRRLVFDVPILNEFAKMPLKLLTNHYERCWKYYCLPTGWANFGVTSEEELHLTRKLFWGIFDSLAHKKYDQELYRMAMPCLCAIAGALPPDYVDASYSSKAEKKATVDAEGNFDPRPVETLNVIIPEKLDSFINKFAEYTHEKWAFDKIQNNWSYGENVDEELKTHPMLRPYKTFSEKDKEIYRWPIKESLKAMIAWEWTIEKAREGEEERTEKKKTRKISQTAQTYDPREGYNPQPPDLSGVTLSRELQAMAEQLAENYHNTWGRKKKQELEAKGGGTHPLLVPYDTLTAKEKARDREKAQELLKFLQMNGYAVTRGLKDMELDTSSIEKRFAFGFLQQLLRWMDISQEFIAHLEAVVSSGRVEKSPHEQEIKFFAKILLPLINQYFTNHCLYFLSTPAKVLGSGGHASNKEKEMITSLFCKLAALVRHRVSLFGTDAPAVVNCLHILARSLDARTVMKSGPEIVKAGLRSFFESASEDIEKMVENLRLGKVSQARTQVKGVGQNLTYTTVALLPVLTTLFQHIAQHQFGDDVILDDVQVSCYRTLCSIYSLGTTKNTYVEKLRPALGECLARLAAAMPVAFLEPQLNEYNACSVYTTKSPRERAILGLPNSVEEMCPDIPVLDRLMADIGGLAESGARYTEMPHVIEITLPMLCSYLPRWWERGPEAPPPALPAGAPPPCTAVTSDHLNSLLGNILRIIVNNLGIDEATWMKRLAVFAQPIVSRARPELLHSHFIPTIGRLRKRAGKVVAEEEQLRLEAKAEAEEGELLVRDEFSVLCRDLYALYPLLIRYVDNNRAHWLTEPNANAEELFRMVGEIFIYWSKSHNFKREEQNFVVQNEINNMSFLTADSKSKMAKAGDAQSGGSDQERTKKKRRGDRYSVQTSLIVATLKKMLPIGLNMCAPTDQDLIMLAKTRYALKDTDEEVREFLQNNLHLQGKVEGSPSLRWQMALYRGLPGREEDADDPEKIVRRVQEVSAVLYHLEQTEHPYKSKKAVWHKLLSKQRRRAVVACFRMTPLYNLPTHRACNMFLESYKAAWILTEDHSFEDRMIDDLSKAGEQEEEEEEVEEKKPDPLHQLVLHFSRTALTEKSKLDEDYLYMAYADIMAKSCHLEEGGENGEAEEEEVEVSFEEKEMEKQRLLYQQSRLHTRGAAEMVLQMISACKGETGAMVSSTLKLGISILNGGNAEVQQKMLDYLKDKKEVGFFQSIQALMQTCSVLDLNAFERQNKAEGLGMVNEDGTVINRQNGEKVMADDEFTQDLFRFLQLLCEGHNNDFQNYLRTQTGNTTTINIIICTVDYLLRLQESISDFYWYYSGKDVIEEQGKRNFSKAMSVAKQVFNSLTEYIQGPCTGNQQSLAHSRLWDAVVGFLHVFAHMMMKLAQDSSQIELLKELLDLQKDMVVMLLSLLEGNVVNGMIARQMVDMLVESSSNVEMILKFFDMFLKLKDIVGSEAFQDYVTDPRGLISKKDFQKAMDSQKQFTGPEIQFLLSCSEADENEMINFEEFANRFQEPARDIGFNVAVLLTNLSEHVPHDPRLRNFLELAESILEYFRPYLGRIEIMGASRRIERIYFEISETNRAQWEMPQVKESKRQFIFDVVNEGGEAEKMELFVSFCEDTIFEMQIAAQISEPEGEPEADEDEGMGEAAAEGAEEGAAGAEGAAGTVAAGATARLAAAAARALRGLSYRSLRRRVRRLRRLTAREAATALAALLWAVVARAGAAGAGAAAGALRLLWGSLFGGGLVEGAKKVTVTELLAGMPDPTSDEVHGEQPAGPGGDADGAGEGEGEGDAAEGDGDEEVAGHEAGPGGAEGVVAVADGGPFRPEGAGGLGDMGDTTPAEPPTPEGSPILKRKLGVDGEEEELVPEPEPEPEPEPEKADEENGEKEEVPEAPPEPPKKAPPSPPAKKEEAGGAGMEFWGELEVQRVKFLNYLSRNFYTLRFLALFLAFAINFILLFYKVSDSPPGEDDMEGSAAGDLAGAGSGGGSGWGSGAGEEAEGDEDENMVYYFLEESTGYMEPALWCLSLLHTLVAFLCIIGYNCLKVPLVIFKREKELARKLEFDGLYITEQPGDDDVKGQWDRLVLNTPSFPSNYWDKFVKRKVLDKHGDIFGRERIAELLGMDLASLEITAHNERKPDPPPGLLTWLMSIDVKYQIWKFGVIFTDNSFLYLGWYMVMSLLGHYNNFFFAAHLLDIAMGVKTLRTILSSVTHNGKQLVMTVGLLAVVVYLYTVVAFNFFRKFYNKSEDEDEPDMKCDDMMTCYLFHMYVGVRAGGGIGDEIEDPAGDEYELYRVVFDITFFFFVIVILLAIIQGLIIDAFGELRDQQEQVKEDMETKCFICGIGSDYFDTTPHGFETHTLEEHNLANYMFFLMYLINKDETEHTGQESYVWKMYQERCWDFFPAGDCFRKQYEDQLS

stoichiometry N: 4
Substance: ryanodine receptor 1 (RyR1) purified from rabbit skeletal muscle, P11716 1-5037
